The data set concerns MS2 coat protein. As to the kind of experiment: apparent KD of MS2 coat protein; designed switch direction (-1 OFF switch, 1 ON switch): -1; higher = weaker reporter binding. The essentials:
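The apparent KD reported per design is the median over clusters of curve fits to normalised cluster fluorescence. The RNA switches were transcribed on Illumina chips by stalled E. coli RNA polymerase. SNAP-549-labelled MS2 coat protein was titrated from 0.7 or 1.5 nM, doubling up to 3 µM, in Tris-HCl pH 7.5 buffer containing KCl, MgCl2, BSA, DTT, tRNA and Tween-20, with no input, 200 uM small-molecule ligand, or an oligonucleotide input.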

Setting [1] is: input ligand: microRNA oligo, concentration not stated.
[2] abbreviates: Eterna round: R95, input ligand: FMN 200 uM.
Where [3] appears, read: Eterna round: R95, input ligand: microRNA oligo, concentration not stated.
Where [4] appears, read: Eterna round: R95, input ligand: none.

In the case of “GUACUGAAGCUUUGCUUUAGUCGUACAUGAGGAUCACCCAUGUAGGAUAUGGUAGGCUUUGCUUACUAGAAGGACAGAGUGAUC [JL EXNG3 1.26] (Eterna round: R96, puzzle: Exclusion NG 3)”, the “apparent KD of MS2 coat protein” value is, setting by setting: (input ligand: FMN 200 uM) 33.1 nM; under setting [1], 139 nM; (input ligand: none) 75.7 nM.

“ACGUAUAGAGGAUAUAGUGAAUAUUACAUGAGGAUCACCCAUGUUCUUCAAAGUAUAUUCCUAGAAGGCUAAUGAA [EX-5 Malc#11] (puzzle: Exclusion 5)”: the “apparent KD of MS2 coat protein” value by setting is: under setting [2], 537 nM; under setting [3], 148 nM; under setting [4], 171 nM.

With “GAGAAACAUGAGGAUCACCCAUGUCAGGAUAUUCGGAGGAGAGGGAAGAGAGAGAGGAGAAGAAGGGACGAGAG [Exclusion 1 Rhiboswitch & Hairpin Submission (Joejoemyo11)] (puzzle: Exclusion 1)”, the “apparent KD of MS2 coat protein” value came to 38.7 nM under setting [2], 26 nM under setting [3] and 55.7 nM under setting [4].

In the case of “CCGAGCAGACGGAGAUCCAACAUGAGGAUCACCCAUGUCUCAAAAGCUUUUUGCUUGUCUUAUUCUCCUCUGUUCUC [Qureorxe] (Eterna round: R96, puzzle: Sensor v3, turn-off variant 1)”, the “apparent KD of MS2 coat protein” value runs as follows: (input ligand: FMN 200 uM) 13 nM; under setting [1], 29.6 nM; (input ligand: none) 15.6 nM.

With “AAACCUAUAGGAUAUACAUGAGGAUCACCCAUGUUGCGAUUUUUUAGGUAACAGAUCCGUAGAAGGGUAGGUCA [Reinesce] (puzzle: Exclusion 3)”, under setting [3], the “apparent KD of MS2 coat protein” value is 38.1 nM.

On to “UUUUUACAUGAGGAUCACCCAUGUCAGGAUAUGGUUAUAUUUUAUUAUUUUAUUUUUUCCAGAAGGGACUAUUA [My solution] (puzzle: Exclusion 1)”, for which the “apparent KD of MS2 coat protein” value under setting [3] was determined as 273 nM.

Consider “AAAUACCGGUGAGGAUAUUUUUAAUAGAGCUUUAUGAUAUACAUGAGGAUCACCCAUGUUACGUUAAAGAAGGCAUCGGAUAAA [Mat - Exclusion NG 2 - Mod of JL - D98] (Eterna round: R96, puzzle: Exclusion NG 2)”, for which the “apparent KD of MS2 coat protein” value under setting [1] is 13.9 nM.

In the case of “UUAAUUCUGAUUCUUGAAAUACAUGAGGAUCACCCAUGUUCACAGGAUAUUGAUUAUGGUAGUAACAAGAAGGGUGUAUCAUUU [JR_ExcNG3_Sub040] (Eterna round: R96, puzzle: Exclusion NG 3)”, the “apparent KD of MS2 coat protein” value came out at 192 nM (input ligand: FMN 200 uM), 162 nM under setting [1] and 111 nM (input ligand: none).

As for “CCCUCACAUGAGGAUCACCCAUGUAAGGAUAUCUUCGAUUUGACGUGGUUGGAUGCGAAGAGAAGGUACAAGGC [jl-ex1-4.72 ViennaUCT mod] (Eterna round: R97, puzzle: Exclusion 1)”, the “apparent KD of MS2 coat protein” value (input ligand: FMN 200 uM) was found to be 35.9 nM and the “apparent KD of MS2 coat protein” value (input ligand: none) is 20.6 nM.

As to “UUAUUAUAUGUAGGAUAUGCAUAUUAUUAUUAUGCAGAAGGACAUGAGGAUCACCCAUGUAUAUUAUUAUUAUAUAUUAUAUAU [Title] (Eterna round: R96, puzzle: Exclusion NG 1)”, the “apparent KD of MS2 coat protein” value under setting [1] worked out at 23.6 nM.

For “GCGUAUGAGCAGGAUAUCCGACGGGAAUCCAAAGGAGAAGGGCUCACAUGAGGAUCACCCAUGUGGUCCUAAAC [Vequat] (puzzle: Exclusion 6)”, the “apparent KD of MS2 coat protein” value under setting [3] was 19.4 nM.

As to “CAGCGGUGAGGAUAUUCAAGGUGGGACAUGAGGAUCACCCAUGUACAUAGCUGUACGACCGGAGAAGGCGUGGCAU [Eternabot (L1) Solution 67] (Eterna round: R97, puzzle: Exclusion 5)”, the “apparent KD of MS2 coat protein” value (input ligand: FMN 200 uM) is 86.5 nM and the “apparent KD of MS2 coat protein” value (input ligand: none) was 76.3 nM.

On to “AAGAGUGCAGGAUAUACUUGUUAGGACGGUUGGAUGGUUUGACAUGAGGAUCACCCAUGUAGAAGGGCAGAGAG [JR_Exclu2_Sub053] (puzzle: Exclusion 2)”, for which the “apparent KD of MS2 coat protein” value under setting [3] amounted to 70.5 nM.

“AGUCAGGCGGUAGGAUAUCCAAACCGAGUGACCCUUUCAUAACAUGAGGAUCACCCAUGUCGGUGGGAGAAGGGCCGUAAGGCA [Mat - Exclusion NG 2 - Mod of JL - D66] (Eterna round: R96, puzzle: Exclusion NG 2)”: the “apparent KD of MS2 coat protein” value by setting is: (input ligand: FMN 200 uM) 127 nM; under setting [1], 52.8 nM; (input ligand: none) 56.6 nM.

As to “UCUUAUUGCAAGGAUAUGCAAAUUAUUAUUAAUGCAGAAGGUGCUACAUGAGGAUCACCCAUGUUUCCGGGAAA [JR_E6_Sub041] (puzzle: Exclusion 6)”, the “apparent KD of MS2 coat protein” value stood at 66.6 nM under setting [2], 31.6 nM under setting [3] and 31.5 nM under setting [4].

On to “GAUAAGCUAGGAUAUACAUAUUAUUUAAUAUCCUCAUUAAUACAUGAGGAUCACCCAUGUAGAAGGAGCAAUAG [Mat - Exclusion 2 - Mod of Hog - D90] (puzzle: Exclusion 2)”, for which, under setting [3], the “apparent KD of MS2 coat protein” value stood at 108 nM.

Take “UGAUCUUGAGUCAGGAUAUGCUGGUUUUUUUUUUAGCAGAAGGGACAUGAGGAUCACCCAUGUUCUCACUUUUU [Magic-12] (puzzle: Brourd's mod of Exclusion 4)”: the “apparent KD of MS2 coat protein” value under setting [3] is 16.8 nM.

“GCAGGUUAAGUCAGGAUAUACCUAUGGAUACAUAGGUAGAAGGGACAUGAGGAUCACCCAUGUGACUCGCCUGC [Fiskers BMX 4 - 61] (puzzle: Brourd's mod of Exclusion 4)”: the “apparent KD of MS2 coat protein” value under setting [3] was found to be 25.6 nM.

With “GGAGGACGAGCAGGAUAUUUUCACAUGAGGAUCACCCAUGUGUACUCAGGGUAAUCCUCCGCCGAAGAGAAGGGUUCGGAAGAA [Socedi] (Eterna round: R96, puzzle: Exclusion NG 2)”, the “apparent KD of MS2 coat protein” value is 91 nM (input ligand: FMN 200 uM), 23 nM under setting [1] and 57.1 nM (input ligand: none).

On to “UUGCUCCCUUAGUACUCUACAAGCUUUUUGUUCGUUUUAACAUGAGGAUCACCCAUGUCUAGUGGAUCUGAUCGGGU [JL ViennaUCT Isreen mod 4] (puzzle: Sensor v3, turn-off variant 2)”, for which the “apparent KD of MS2 coat protein” value reads like this: under setting [2], 136 nM; under setting [3], 226 nM; under setting [4], 165 nM.

As to “UUUUAACAUGAGGAUCACCCAUGUGAGGAUAUCGUAUUUUUUAUUAAUAUUAAUAAAACGAGAAGGCACAUUUU [JMF 17] (puzzle: Exclusion 1)”, the “apparent KD of MS2 coat protein” value under setting [3] stood at 86.1 nM.

With “ACAUGCUUAAUCUGUAUGAACAUGAGGAUCACCCAUGUAUAAGGGAAUUCUUUUGGGUUUUUUAUUGCUCGUCUUAU [JR_STOV1_Sub022] (Eterna round: R97, puzzle: Sensor, turn-off variant 1)”, the “apparent KD of MS2 coat protein” value came out at 379 nM (input ligand: FMN 200 uM) and 360 nM (input ligand: none).

“CGUGCGUAUGUGAGGAUAUGCUGGUCCUUGGAUCGGCAGAAGGCACAUGAGGAUCACCCAUGUGGUGUCGUACA [salish99_Bmod_ex4_088] (puzzle: Brourd's mod of Exclusion 4)”: the “apparent KD of MS2 coat protein” value under setting [3] came to 215 nM.

As for “GGAGGACGAGCAGGAUAUUUUCACAUGAGGAUCACCCAUGUGUAUUCAGGGUAAUCCUCCGCCGAAAAGAAGGGUUCGGAAGAA [JL ViennaUCT Socedi mod 2] (Eterna round: R96, puzzle: Exclusion NG 2)”, the “apparent KD of MS2 coat protein” value (input ligand: FMN 200 uM) was 62.9 nM, the “apparent KD of MS2 coat protein” value under setting [1] amounted to 39 nM and the “apparent KD of MS2 coat protein” value (input ligand: none) was 47.2 nM.

Turning to “UGAAGUUGUGUGAGGAUAUCGGGCCCGAAAGGGCCCGAGAAGGCACAUGAGGAUCACCCAUGUAAGCGGCUUCG [-37.8, -35.7 kcal, A 26%, 0-3] (Eterna round: R97, puzzle: Brourd's mod of Exclusion 4)”, the “apparent KD of MS2 coat protein” value runs as follows: (input ligand: FMN 200 uM) 15.8 nM; (input ligand: none) 19.6 nM.

With “GCCGUUGAAGGAUAUGCUGAACUUGAGGUGCGUCCAUCCACACAUGAGGAUCACCCAUGUAGAAGGUCAACGGA [Eternabot (L2) Solution 67] (Eterna round: R97, puzzle: Exclusion 2)”, the “apparent KD of MS2 coat protein” value was found to be 456 nM (input ligand: FMN 200 uM) and 287 nM (input ligand: none).

For “ACGAGGGUUACAGGAUAUGAAGCUAAAACGGCGUUAGAAGGGUAUACAGAGUUACAUGAGGAUCACCCAUGUUGUGACUUCGAA [AK ExNG1-V2-4] (Eterna round: R96, puzzle: Exclusion NG 1)”, under setting [1], the “apparent KD of MS2 coat protein” value was determined as 29.4 nM.

As to “UGUUGUCGCGCAGGAUAUGCAUGAGGAUCACCCAUGCAACCACAUUUAACAUGAGGAUCACCCAUGUAGAAGGGCGGGACAACU [pwkr exNG2 2xF5 1xFMN.3] (Eterna round: R96, puzzle: Exclusion NG 2)”, the “apparent KD of MS2 coat protein” value by setting is: (input ligand: FMN 200 uM) 89 nM; under setting [1], 25 nM; (input ligand: none) 31.4 nM.

In the case of “CAGUACUGAGGAUAUACAUGAGGAUCACCCAUGUGUGUGAAAUUUAUGUGGUUGUUUUGUAGAAGGCAGUACUG [JR_Ex3_Sub029] (Eterna round: R97, puzzle: Exclusion 3)”, the “apparent KD of MS2 coat protein” value reads like this: (input ligand: FMN 200 uM) 92.1 nM; (input ligand: none) 855 nM.

With “GAAAACGCUGAGGAUAUUUCUGAUCAAAGCAGCAAAGAAGGCAGCACAUGAGGAUCACCCAUGUGGUCUUCAAU [Mat - Exclusion 6 - JL Mod - D11] (Eterna round: R97, puzzle: Exclusion 6)”, the “apparent KD of MS2 coat protein” value is 445 nM (input ligand: FMN 200 uM) and 33 nM (input ligand: none).

For the sequence “UUUAUAUAGUAAGGAUAUGUAUUAAUUUUAUAGACAGAAGGUACUGACAUGAGGAUCACCCAUGUUUUAGUGUGGGCAUGUAGU [JMF's solution 94] (Eterna round: R96, puzzle: Exclusion NG 1)”, the “apparent KD of MS2 coat protein” value under setting [1] was found to be 299 nM.

As for “AACCUGAGGCUUUGCUUUAGGUCUACAUGAGGAUCACCCAUGUAGGAUAUGGUAGGCUUUGCUUACCAGAAGGACAUGGUAAUU [JL ENG3 1.13] (Eterna round: R96, puzzle: Exclusion NG 3)”, the “apparent KD of MS2 coat protein” value is, setting by setting: (input ligand: FMN 200 uM) 323 nM; under setting [1], 47.7 nM; (input ligand: none) 65.5 nM.

These data come from the supplement of paper PMC9170038.
